From patent US20110195900A1, “PEPTIDIC PTH RECEPTOR AGONISTS” (FERRING B.V., priority 2008, published 2011)
Starred links: 1 amine or outer side, 2 acyl side, 3 side chain; linkers in the order of their positions; H or OH if unused. Non-standard residues stand in square brackets, D forms with d. No end group written: not given here. hSer(OMe) = COCC[C@H](N[*:1])C(=O)[*:2]; 1Nal = N[C@@H](Cc1cccc2ccccc12)C(=O)O; β3hI = CC[C@H](C)[C@H](N)CC(=O)O; β3hE = N[C@@H](CCC(=O)O)CC(=O)O; Nle = CCCC[C@H](N)C(=O)O; β3hA = C[C@H](N)CC(=O)O; Aib = CC(C)(N)C(=O)O; βAla = NCCC(=O)O

Columns and labels:
[1] = target: human parathyroid hormone receptor 1 (human, UniProt Q03431); test: cell-based or functional assay
[2] = target: human parathyroid hormone receptor 2 (human, UniProt P49190); test: cell-based or functional assay

SVSEIQL[Nle]HNLGKHLNS[β3hI]ERVE[1Nal]LRKLLQDVHNE-NH2 [[Nle^8, β-hIle^18, 1-Nal^23, Leu^27, Glu^34] hPTH (1-34)-NH2]
hPTHR-1 EC50 (nM), CRE-luciferase reporter gene assay [1]: 0.12 nM | hPTHR-2 EC50 (nM), luciferase reporter gene assay [2]: 57 nM

[Aib]VSEIQL[Nle]HSLGKHLKS[β3hI]ERVE[1Nal]LRKLLQRVHEF-NH2 [[Aib^1, Nle^8, Ser^10, Lys^16, β-hIle^18, 1-Nal^23, Leu^27, Arg^30, Glu^33] hPTH (1-34)-NH2]
hPTHR-1 EC50 (nM), CRE-luciferase reporter gene assay [1]: 0.09 nM | hPTHR-2 EC50 (nM), luciferase reporter gene assay [2]: 6 nM

SVSEIQL[Nle]HELGKHLNS[β3hI]ERVE[1Nal]LRKLLQDVHNF-NH2 [[Nle^8, Glu^10, β-hIle^18, 1-Nal^23, Leu^27] hPTH (1-34)-NH2]
hPTHR-1 EC50 (nM), CRE-luciferase reporter gene assay [1]: 0.13 nM | hPTHR-2 EC50 (nM), luciferase reporter gene assay [2]: 3 nM

SVSEIQL[Nle]HSLGKHLNS[β3hI]ERVE[1Nal]LRKLLQDVHNF-NH2 [[Nle^8, Ser^10, β-hIle^18, 1-Nal^23, Leu^27] hPTH (1-34)-NH2]
hPTHR-1 EC50 (nM), CRE-luciferase reporter gene assay [1]: 0.18 nM | hPTHR-2 EC50 (nM), luciferase reporter gene assay [2]: 17 nM

SVSEIQL[Nle]HNLGKHLNS[β3hI]ERVE[1Nal]LRKLLQHVHNF-NH2 [[Nle^8, β-hIle^18, 1-Nal^23, Leu^27, His^30] hPTH (1-34)-NH2]
hPTHR-1 EC50 (nM), CRE-luciferase reporter gene assay [1]: 0.18 nM | hPTHR-2 EC50 (nM), luciferase reporter gene assay [2]: 13 nM

[Aib]VSEIQL[Nle]HSLGKHLKS[β3hI]ERVE[1Nal]LRKLLQRVHEE-NH2 [[Aib^1, Nle^8, Ser^10, Lys^16, β-hIle^18, 1-Nal^23, Leu^27, Arg^30, Glu^33, Glu^34] hPTH (1-34)-NH2]
hPTHR-1 EC50 (nM), CRE-luciferase reporter gene assay [1]: 0.04 nM | hPTHR-2 EC50 (nM), luciferase reporter gene assay [2]: 4 nM

SVSEIQL[Nle]HNLGKHLES[β3hI]ERVE[1Nal]LRKLLQDVHNF-NH2 [[Nle^8, Glu^16, β-hIle^18, 1-Nal^23, Leu^27] hPTH (1-34)-NH2]
hPTHR-1 EC50 (nM), CRE-luciferase reporter gene assay [1]: 0.16 nM | hPTHR-2 EC50 (nM), luciferase reporter gene assay [2]: 37 nM

SVSEIQL[Nle]HNL[Aib]KHLNS[β3hI]ERVE[1Nal]LRKLLQDVHNF-NH2 [[Nle^8, Aib^12, β-hIle^18, 1-Nal^23, Leu^27] hPTH (1-34)-NH2]
hPTHR-1 EC50 (nM), CRE-luciferase reporter gene assay [1]: 0.23 nM | hPTHR-2 EC50 (nM), luciferase reporter gene assay [2]: 13 nM

SVSEIQL[Nle]HNLGKHLNS[β3hI]ERVE[1Nal]LRKLLQDVHNK-NH2 [[Nle^8, β-hIle^18, 1-Nal^23, Leu^27, Lys^34] hPTH (1-34)-NH2]
hPTHR-1 EC50 (nM), CRE-luciferase reporter gene assay [1]: 0.1 nM | hPTHR-2 EC50 (nM), luciferase reporter gene assay [2]: 17 nM

SVSEIQL[Nle]HNLGKHLKS[β3hI]ERVE[1Nal]LRKLLQDVHNF-NH2 [[Nle^8, Lys^16, β-hIle^18, 1-Nal^23, Leu^27] hPTH (1-34)-NH2]
hPTHR-1 EC50 (nM), CRE-luciferase reporter gene assay [1]: 0.08 nM | hPTHR-2 EC50 (nM), luciferase reporter gene assay [2]: 30 nM

SVSEIQL[Nle]HNLGKHLNS[β3hI]ERVE[1Nal]LRKLLQDVHNF-NH2 [[Nle^8, β-hIle^18, 1-Nal^23, Leu^27] hPTH (1-34)-NH2]
hPTHR-1 EC50 (nM), CRE-luciferase reporter gene assay [1]: 0.14 nM | hPTHR-2 EC50 (nM), luciferase reporter gene assay [2]: 32 nM

SVSEIQL[Nle]HNLGKHLKS[β3hI]ERVE[1Nal]LRKLLQRVHNF-NH2 [[Nle^8, Lys^16, β-hIle^18, 1-Nal^23, Leu^27, Arg^30] hPTH (1-34)-NH2]
hPTHR-1 EC50 (nM), CRE-luciferase reporter gene assay [1]: 0.14 nM | hPTHR-2 EC50 (nM), luciferase reporter gene assay [2]: 14 nM

SVSEIQL[Nle]HNLGKHLNS[β3hA]ERVE[1Nal]LRKLLQDVHNF-NH2 [[Nle^8, β-hAla^18, 1-Nal^23, Leu^27] hPTH (1-34)-NH2]
hPTHR-1 EC50 (nM), CRE-luciferase reporter gene assay [1]: 0.22 nM | hPTHR-2 EC50 (nM), luciferase reporter gene assay [2]: 61 nM

SVSEIQL[Nle]HNLGKHLSS[β3hI]ERVE[1Nal]LRKLLQDVHNF-NH2 [[Nle^8, Ser^16, β-hIle^18, 1-Nal^23, Leu^27] hPTH (1-34)-NH2]
hPTHR-1 EC50 (nM), CRE-luciferase reporter gene assay [1]: 0.19 nM | hPTHR-2 EC50 (nM), luciferase reporter gene assay [2]: 20 nM

[Aib]VSEIQL[Nle]HNLGKHLN[βAla][hSer(OMe)]ERVE[1Nal]LRKLLQDVHNF-NH2 [[Aib^1, Nle^8, β-Ala^17, hSer(OMe)^18, 1-Nal^23, Leu^27] hPTH (1-34)-NH2]
hPTHR-1 EC50 (nM), CRE-luciferase reporter gene assay [1]: 0.06 nM | hPTHR-2 EC50 (nM), luciferase reporter gene assay [2]: 49 nM

SVSEIQL[Nle]HNL[Aib][Aib]HLNS[β3hI]ERVE[1Nal]LRKLLQDVHNF-NH2 [[Nle^8, Aib^12,13, β-hIle^18, 1-Nal^23, Leu^27] hPTH (1-34)-NH2]
hPTHR-1 EC50 (nM), CRE-luciferase reporter gene assay [1]: 0.25 nM | hPTHR-2 EC50 (nM), luciferase reporter gene assay [2]: 34 nM

[Aib]VSEIQL[Nle]HNLGKHLKS[β3hI]ERVE[1Nal]LRKLLQRVHEF-NH2 [[Aib^1, Nle^8, Lys^16, β-hIle^18, 1-Nal^23, Leu^27, Arg^30, Glu^33] hPTH (1-34)-NH2]
hPTHR-1 EC50 (nM), CRE-luciferase reporter gene assay [1]: 0.09 nM | hPTHR-2 EC50 (nM), luciferase reporter gene assay [2]: 6 nM

SVSEIQLXHNLGXHLNSXERVEXLRKLLQDVHNF (Nle^8, Aib^13, β-hIle^18, 1-Nal^23, C-terminal NH2 (amide)) [[Nle^8, Aib^13, β-hIle^18, 1-Nal^23, Leu^27] hPTH (1-34)-NH2]
hPTHR-1 EC50 (nM), CRE-luciferase reporter gene assay [1]: 0.14 nM | hPTHR-2 EC50 (nM), luciferase reporter gene assay [2]: 68 nM

[Aib]VSEIQL[Nle]HNLGKHLNS[β3hI]ERVE[1Nal]LRKLLQDVHNF-NH2 [[Aib^1, Nle^8, β-hIle^18, 1-Nal^23, Leu^27] hPTH (1-34)-NH2]
hPTHR-1 EC50 (nM), CRE-luciferase reporter gene assay [1]: 0.04 nM | hPTHR-2 EC50 (nM), luciferase reporter gene assay [2]: 16 nM

SVSEIQL[Nle]HNLGKHLNS[β3hI]ERVE[1Nal]LRKLLQDVHEF-NH2 [[Nle^8, β-hIle^18, 1-Nal^23, Leu^27, Glu^33] hPTH (1-34)-NH2]
hPTHR-1 EC50 (nM), CRE-luciferase reporter gene assay [1]: 0.12 nM | hPTHR-2 EC50 (nM), luciferase reporter gene assay [2]: 41 nM

SVSEIQL[Nle]HNLGKHLNS[β3hI]ERVE[1Nal]LRKLLQSVHNF-NH2 [[Nle^8, β-hIle^18, 1-Nal^23, Leu^27, Ser^30] hPTH (1-34)-NH2]
hPTHR-1 EC50 (nM), CRE-luciferase reporter gene assay [1]: 0.19 nM | hPTHR-2 EC50 (nM), luciferase reporter gene assay [2]: 19 nM

SVSEIQL[Nle]HNLGKHLNS[β3hI]ERVE[1Nal]LRKLLQDVHKF-NH2 [[Nle^8, β-hIle^18, 1-Nal^23, Leu^27, Lys^33] hPTH (1-34)-NH2]
hPTHR-1 EC50 (nM), CRE-luciferase reporter gene assay [1]: 0.15 nM | hPTHR-2 EC50 (nM), luciferase reporter gene assay [2]: 32 nM

SVSEIQL[Nle]HNLGKHLNS[β3hI]ERVE[1Nal]LRKLLQRVHNF-NH2 [[Nle^8, β-hIle^18, 1-Nal^23, Leu^27, Arg^30] hPTH (1-34)-NH2]
hPTHR-1 EC50 (nM), CRE-luciferase reporter gene assay [1]: 0.18 nM | hPTHR-2 EC50 (nM), luciferase reporter gene assay [2]: 7 nM

B1: [Nle^8,18, β-hGlu^19, 1-Nal^23, Leu^27] hPTH (1-34)-NH2 (peptide)
peptide: SVSEIQL[Nle]HNLGKHLNS[Nle][β3hE]RVE[1Nal]LRKLLQDVHNF-NH2
modifications: N-terminus assumed
SMILES: CCCC[C@H](NC(=O)[C@H](CO)NC(=O)[C@H](CC(N)=O)NC(=O)[C@H](CC(C)C)NC(=O)[C@H](Cc1c[nH]cn1)NC(=O)[C@H](CCCCN)NC(=O)CNC(=O)[C@H](CC(C)C)NC(=O)[C@H](CC(N)=O)NC(=O)[C@H](Cc1c[nH]cn1)NC(=O)[C@H](CCCC)NC(=O)[C@H](CC(C)C)NC(=O)[C@H](CCC(N)=O)NC(=O)[C@@H](NC(=O)[C@H](CCC(=O)O)NC(=O)[C@H](CO)NC(=O)[C@@H](NC(=O)[C@@H](N)CO)C(C)C)[C@@H](C)CC)C(=O)N[C@@H](CCC(=O)O)CC(=O)N[C@@H](CCCNC(=N)N)C(=O)N[C@H](C(=O)N[C@@H](CCC(=O)O)C(=O)N[C@@H](Cc1cccc2ccccc12)C(=O)N[C@@H](CC(C)C)C(=O)N[C@@H](CCCNC(=N)N)C(=O)N[C@@H](CCCCN)C(=O)N[C@@H](CC(C)C)C(=O)N[C@@H](CC(C)C)C(=O)N[C@@H](CCC(N)=O)C(=O)N[C@@H](CC(=O)O)C(=O)N[C@H](C(=O)N[C@@H](Cc1c[nH]cn1)C(=O)N[C@@H](CC(N)=O)C(=O)N[C@@H](Cc1ccccc1)C(N)=O)C(C)C)C(C)C
hPTHR-1 EC50 (nM), CRE-luciferase reporter gene assay [1]: 0.32 nM | hPTHR-2 EC50 (nM), luciferase reporter gene assay [2]: 29 nM
